Patent US20230272097A1 (PETMEDIX, published 2023)

T1: canine OX40L, full length membrane form, expressed on the cell surface (HEK293 or MEF cells stably … (canine (dog, beagle)))
T1 construct: The same protein is used on HEK293 and on MEF cells; also called HEK-OX40L; OX40L expressing HEK293 cells
T1 chain: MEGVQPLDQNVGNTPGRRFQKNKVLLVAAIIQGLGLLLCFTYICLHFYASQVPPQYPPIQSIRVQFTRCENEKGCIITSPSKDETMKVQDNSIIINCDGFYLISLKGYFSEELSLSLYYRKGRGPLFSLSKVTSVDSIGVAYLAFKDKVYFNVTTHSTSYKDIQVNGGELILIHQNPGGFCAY

T2: OX40L ECD-TNCc-HIS protein (trimeric soluble canine OX40L extra cellular domain probe, HIS tagged) (canine; chicken, UniProt P10039 110-139, limits assumed)
T2 construct: domain: trimerization domain; also called HIS tagged trimeric OX40L protein; not shown: HIS tag
T2 sequence: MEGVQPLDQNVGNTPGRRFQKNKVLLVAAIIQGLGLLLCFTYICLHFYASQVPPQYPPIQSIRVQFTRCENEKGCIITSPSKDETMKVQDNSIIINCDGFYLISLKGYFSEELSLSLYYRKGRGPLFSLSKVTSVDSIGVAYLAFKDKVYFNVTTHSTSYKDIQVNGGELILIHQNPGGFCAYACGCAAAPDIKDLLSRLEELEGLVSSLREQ


What was measured:
[1] = target: T1, canine OX40L, full length membrane …; test: cell binding (flow cytometry on cells expressing OX40L; cell line not given)
Procedure: (§1) Specific binding to cells expressing OX40L is confirmed by purifying mAb from the CHO supernatant using protein A resin (MabSelect, Cytiva). In brief, MabSelect resin is washed in PBS and diluted to have a 10% slurry. An appropriate volume of the 10% slurry is added to the supernatant and incubated 5-10′ at RT before being loaded into a filter column. After 3 washes with PBS the antibodies are eluted using IgG elute buffer (Pierce) directly into neutralisation buffer (10 mM TRIS pH8.0), 8:1 IgG elute: neutralisation buffer ratio. Antibody solutions are quantified measuring absorbance at 280 nm, using a Nanodrop One (Thermo Fisher). Serial 1:3 dilutions of purified antibodies ranging from 6.6 μM to 66 pM are prepared in FACS buffer and are used to stain HEK293 or MEF cells (or any other commonly used cell lines) expressing canine OX40L.

[2] = target: T2, OX40L ECD-TNCc-HIS protein (trimeric …); test: SPR exp 1, Biacore 8K, OX40L ECD-TNCc-HIS amine coupled to CM5 chip, antibody as analyte, Kd at equilibrium
Text: (§2) To determine affinity by SPR (Biacore 8K, Cytivia), purified OX40L ECD-TNCc-HIS protein is covalently bound at low density to the surface of a CM5 sensor chip (Cytivia) by amine coupling, using the manufacturer's recommended protocol. Candidate antibodies are subsequently passed across the chip surface at a range of concentrations and affinity determined using the dedicated software (Biacore Insight Evaluation Software).

[3] = target: T2, OX40L ECD-TNCc-HIS protein (trimeric …); test: SPR exp 2, Biacore 8K, OX40L ECD-TNCc-HIS amine coupled to CM5 chip, antibody as analyte, Kd at equilibrium
Text: as §2

[4] = target: T1, canine OX40L, full length membrane …; test: flow cytometry titration on HEK cells expressing OX40L; Kd (EC50) from GeoMean vs concentration, Prism four parameter fit
Procedure: FIG. 10. Affinity determination for antibodies that bind OX40L on HEK cells expressing OX40L. Graphs are generated by plotting GeoMean arbitrary units (AU) against Log₁₀ [concentration]. Kd (EC₅₀) was calculated using Prism.
as §1

[5] = target: T1, canine OX40L, full length membrane …; test: flow cytometry titration on MEF cells expressing OX40L; Kd (EC50) from GeoMean vs concentration, Prism four parameter fit
Procedure: FIG. 11. Affinity determination for antibodies that bind OX40L on MEF cells expressing OX40L. Graphs are generated by plotting GeoMean arbitrary units (AU) against Log₁₀ [concentration]. Kd (EC₅₀) was calculated using Prism.
as §1

| Kd [1] | Kd [2] | Kd [3] | Kd [4] | Kd [5] | Binder |
| --- | --- | --- | --- | --- | --- |
| 37 nM | 14.8 nM | 14.8 nM | 3 nM |  | PMX012 (antibody, V domains shown, Canine variable regions from Ky9 mice; human kappa or canine kappa/lambda light constant) VH: EVQLVESGGDLVKPGGSLRLACVTSGFTFSSYHMNWVRQAPGKGLQWVAYINTGGTVTTYADAMNADAVRGRFTISRDNVKNTLYLQMNRLRAEDTAVYYCARGYGVFDYWGQGTLVTVSP VL: SYVLTQLPSKNVTLKQPAHITCGGDNIGSKSVHWYQQKLGQAPVLIIYYDSRRPTGIPERFSGANSGNTATLTISGALAEDEADYYCQVWDNSDRASWVFGEGTQLTVL |
| 74.6 nM | 19.7 nM | 6.61 nM | 5.12 nM | 1.11 nM | PMX014 (antibody, V domains shown, Canine variable regions) VH: EVQLVESGGDLVKPGGSLRLSCVASGFTFSNFHMSWVRQAPGKGLQWVAYINSGGFNINYEDAVRGRFTISRDNAKNTLYLQMNSLRAEDTAIYYCARDWDTHLDTNWFYYWGQGTLVTVSS VL: SYVLTQLPSKNVTLKQSAHITCRGDNIGSKSVHWYQQKLGQAPVLIIYYDSSRPTGIPERFSGANSGNTATLTISGALAEDEADYYCQVWDISAKASVFGGGTHLTVL |
